Test results: patent US20240241135A1 (SENBOLL BIOTECHNOLOGY, published 2024)

Legend:
[1] = target: T1, recombinant human regenerating islet-derived protein 1α (REG1A) (human, UniProt P05451 23-166, limits assumed); test: sandwich ELISA; capture 4H8F1; REG1A 1.23 ng/mL
T1 construct: also called recombinant human REG1A; recombinant REG1A
T1 sequence (looked up): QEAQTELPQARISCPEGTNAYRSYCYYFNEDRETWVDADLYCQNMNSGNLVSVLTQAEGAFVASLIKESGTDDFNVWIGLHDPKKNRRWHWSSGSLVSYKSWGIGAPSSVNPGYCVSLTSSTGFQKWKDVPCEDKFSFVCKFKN
Method in brief: (§1)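 Values come from a sandwich ELISA and are reported as OD values. Each is the absorbance at 450 nm minus that at 620/630 nm, measured after 100 μL per well of recombinant human REG1A in basic diluent was incubated for 1 h at 37 °C on antibody-coated, blocked plates. Detection used a horseradish peroxidase-based antibody system with TMB substrate for 15 min at 37 °C, stopped with 0.2M sulfuric acid.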

[2] = target: T1, recombinant human regenerating …; test: sandwich ELISA; capture 4H8F1; REG1A 3.70 ng/mL
Method in brief: as §1

[3] = target: T1, recombinant human regenerating …; test: sandwich ELISA; capture 25F3C4; REG1A 1.23 ng/mL
Method in brief: as §1

[4] = target: T1, recombinant human regenerating …; test: sandwich ELISA; capture 25F3C4; REG1A 3.70 ng/mL
Method in brief: as §1

[5] = target: T1, recombinant human regenerating …; test: sandwich ELISA; capture 4H8F1; REG1A 11.11 ng/mL
Method in brief: as §1

[6] = target: T1, recombinant human regenerating …; test: sandwich ELISA; capture 4H8F1; REG1A 33.33 ng/mL
Method in brief: as §1

[7] = target: T1, recombinant human regenerating …; test: sandwich ELISA; capture 21B11D2; REG1A 1.23 ng/mL
Method in brief: as §1

[8] = target: T1, recombinant human regenerating …; test: sandwich ELISA; capture 21B11D2; REG1A 3.70 ng/mL
Method in brief: as §1

[9] = target: T1, recombinant human regenerating …; test: sandwich ELISA; capture 25F3C4; REG1A 11.11 ng/mL
Method in brief: as §1

[10] = target: T1, recombinant human regenerating …; test: sandwich ELISA; capture 25F3C4; REG1A 33.33 ng/mL
Method in brief: as §1

[11] = target: T1, recombinant human regenerating …; test: sandwich ELISA; capture 4H8F1; REG1A 100.00 ng/mL
Method in brief: as §1

[12] = target: T1, recombinant human regenerating …; test: sandwich ELISA; capture 11D11B11; REG1A 1.23 ng/mL
Method in brief: as §1

[13] = target: T1, recombinant human regenerating …; test: sandwich ELISA; capture 11D11B11; REG1A 3.70 ng/mL
Method in brief: as §1

[14] = target: T1, recombinant human regenerating …; test: sandwich ELISA; capture 12F12A10; REG1A 1.23 ng/mL
Method in brief: as §1

[15] = target: T1, recombinant human regenerating …; test: sandwich ELISA; capture 12F12A10; REG1A 3.70 ng/mL
Method in brief: as §1

[16] = target: T1, recombinant human regenerating …; test: sandwich ELISA; capture 21B11D2; REG1A 11.11 ng/mL
Method in brief: as §1

[17] = target: T1, recombinant human regenerating …; test: sandwich ELISA; capture 21B11D2; REG1A 33.33 ng/mL
Method in brief: as §1

[18] = target: T1, recombinant human regenerating …; test: sandwich ELISA; capture 25F3C4; REG1A 100.00 ng/mL
Method in brief: as §1

[19] = target: T1, recombinant human regenerating …; test: sandwich ELISA; capture 11D11B11; REG1A 11.11 ng/mL
Method in brief: as §1

[20] = target: T1, recombinant human regenerating …; test: sandwich ELISA; capture 11D11B11; REG1A 33.33 ng/mL
Method in brief: as §1

[21] = target: T1, recombinant human regenerating …; test: sandwich ELISA; capture 12F12A10; REG1A 11.11 ng/mL
Method in brief: as §1

[22] = target: T1, recombinant human regenerating …; test: sandwich ELISA; capture 12F12A10; REG1A 33.33 ng/mL
Method in brief: as §1

[23] = target: T1, recombinant human regenerating …; test: sandwich ELISA; capture 21B11D2; REG1A 100.00 ng/mL
Method in brief: as §1

[24] = target: T1, recombinant human regenerating …; test: sandwich ELISA; capture 11D11B11; REG1A 100.00 ng/mL
Method in brief: as §1

[25] = target: T1, recombinant human regenerating …; test: sandwich ELISA; capture 12F12A10; REG1A 100.00 ng/mL
Method in brief: as §1

[26] = target: T1, recombinant human regenerating …; test: sandwich ELISA; capture 4H8F1; REG1A 0 ng/mL (blank)
Method in brief: as §1

[27] = target: T1, recombinant human regenerating …; test: sandwich ELISA; capture 25F3C4; REG1A 0 ng/mL (blank)
Method in brief: as §1

[28] = target: T1, recombinant human regenerating …; test: sandwich ELISA; capture 21B11D2; REG1A 0 ng/mL (blank)
Method in brief: as §1

[29] = target: T1, recombinant human regenerating …; test: sandwich ELISA; capture 11D11B11; REG1A 0 ng/mL (blank)
Method in brief: as §1

[30] = target: T1, recombinant human regenerating …; test: sandwich ELISA; capture 12F12A10; REG1A 0 ng/mL (blank)
Method in brief: as §1

OD value [1]: 0.072 OD | OD value [2]: 0.068 OD | OD value [3]: 0.066 OD | OD value [4]: 0.068 OD | OD value [5]: 0.07 OD | OD value [6]: 0.073 OD | OD value [7]: 0.066 OD | OD value [8]: 0.069 OD | OD value [9]: 0.069 OD | OD value [10]: 0.071 OD | OD value [11]: 0.08 OD | OD value [12]: 0.07 OD | OD value [13]: 0.06 OD | OD value [14]: 1.18 OD | OD value [15]: 2.38 OD | OD value [16]: 0.069 OD | OD value [17]: 0.071 OD | OD value [18]: 0.073 OD | OD value [19]: 0.066 OD | OD value [20]: 0.063 OD | OD value [21]: 2.89 OD | OD value [22]: 3.21 OD | OD value [23]: 0.068 OD | OD value [24]: 0.065 OD | OD value [25]: 3.35 OD | OD value [26]: 0.069 OD | OD value [27]: 0.068 OD | OD value [28]: 0.073 OD | OD value [29]: 0.068 OD | OD value [30]: 0.068 OD
B1: antibody 21B11D2 (antibody, mouse IgG2b, kappa, V domains shown)
VH: QAQLQQSGAELVRPGASVTLSCKASGYIFTDYEMHWVKQTPVHGLEWIGAIDPETGGTAYNQKFKGKARLTADKSSSTAYMELRSLTSEDSAVYYCTIYYTNHFDYWGQGTTLTVSS
VL: DVVMTQTPLSLPVSLGDQASISCRSSQSLVYSNGDTYLYWYLQKPGQSPKLLIYKVSNRFSGVPDRFSGSGSGTDFTLKISRVEAEDLGVYFCSQSTHVPLTFGAGTKLELKR
notes: Mouse monoclonal from hybridoma, stated mouse IgG1/Kappa; Used unlabelled as capture and biotin-labelled as detection antibody; also called 21B11D2-biotin
